Test results from publication PMC8809517, “Cofactor-independent RNA editing by a synthetic S-type PPR protein”.
Changes are numbered by the printed parent chain.

Tests used:
Test in all cases: high-throughput RNA pulldown from lysate on Ni-NTA beads; HRP: 50 mM Tris pH 8, 150 mM NaCl, 1 mM beta-mercaptoethanol, 50 ug/ml BSA, 3 ug/ml yeast RNA, 0.5% heparin; ITC and FP: Tris pH 8, 200 mM KCl, 5% glycerol; MST: 50 mM Tris pH 8, 200 mM NaCl, 1 mM DTT, BSA, heparin, 0.05% Tween 20
Conditions in all cases: tags: N-terminal His-eGFP
[1] = biological target: T1, GFP-9S library array, motif 4 ND N98W;D124F (synthetic construct, N98W;D124F)
T1 chain: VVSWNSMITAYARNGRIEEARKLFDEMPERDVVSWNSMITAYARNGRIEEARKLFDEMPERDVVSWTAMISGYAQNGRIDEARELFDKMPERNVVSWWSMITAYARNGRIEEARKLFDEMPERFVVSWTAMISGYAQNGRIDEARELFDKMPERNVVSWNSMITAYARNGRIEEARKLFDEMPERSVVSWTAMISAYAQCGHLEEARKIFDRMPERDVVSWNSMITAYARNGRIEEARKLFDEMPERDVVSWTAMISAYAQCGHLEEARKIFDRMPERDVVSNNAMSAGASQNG

[2] = biological target: T2, GFP-9S library array, motif 4 ND N98I;D124N (synthetic construct, N98I;D124N)
T2 chain: T1 chain with W98I, F124N

[3] = biological target: T3, GFP-9S library array, motif 4 ND N98P;D124F (synthetic construct, N98P;D124F)
T3 chain: T1 chain with W98P

[4] = biological target: T4, GFP-9S library array, motif 4 ND N98Q;D124L (synthetic construct, N98Q;D124L)
T4 chain: T1 chain with W98Q, F124L

[5] = biological target: T5, GFP-9S library array, motif 4 ND N98V;D124M (synthetic construct, N98V;D124M)
T5 chain: T1 chain with W98V, F124M

AUUACACGUGA (ssRNA) [Cy5-rpoA]
Kd ([1]; label: 5' Cy5): 95.8 nM
Kd ([2]; label: 5' Cy5): 96.4 nM
Kd ([3]; label: 5' Cy5): 134 nM
Kd ([4]; label: 5' Cy5): 122 nM
Kd ([5]; label: 5' Cy5): 148 nM

AUUAAACGUGA (ssRNA) [IR-rpoA-A]
Kd ([1]; label: 5' IRDye 800CW): 274 nM
Kd ([2]; label: 5' IRDye 800CW): 150 nM
Kd ([3]; label: 5' IRDye 800CW): 245 nM
Kd ([4]; label: 5' IRDye 800CW): 155 nM
Kd ([5]; label: 5' IRDye 800CW): 431 nM

AUUAGACGUGA (ssRNA) [Cy5-rpoA-G]
Kd ([1]; label: 5' Cy5): 80.4 nM
Kd ([2]; label: 5' Cy5): 117 nM
Kd ([3]; label: 5' Cy5): 125 nM
Kd ([4]; label: 5' Cy5): 84.1 nM
Kd ([5]; label: 5' Cy5): 155 nM

AUUAUACGUGA (ssRNA) [IR-rpoA-U]
Kd ([1]; label: 5' IRDye 800CW): 273 nM
Kd ([2]; label: 5' IRDye 800CW): 18.2 nM
Kd ([3]; label: 5' IRDye 800CW): 290 nM
Kd ([4]; label: 5' IRDye 800CW): 261 nM
Kd ([5]; label: 5' IRDye 800CW): 294 nM
